Measured values from patent publication US20240400708A1.

Columns and labels:
[1] = target: feline FcRn complex (FcRn-α subunit and β-microglobulin), biotin labeled (feline); assay: SPR, pH 6
[2] = target: feline FcRn complex (FcRn-α subunit and β-microglobulin), biotin labeled (feline); assay: SPR, pH 7.4

Binder	Kd [1]	Kd [2]
feline IgG1a S252Y/Q311W/D312P (antibody, part only; not given: Variable domains, not shown: another chain or arm of the molecule) constant: ASTTAPSVFPLAPSCGTTSGATVALACLVLGYFPEPVTVSWNSGALTSGVHTFPAVLQASGLYSLSSMVTVPSSRWLSDTFTCNVAHPPSNTKVDKTVRKTDHPPGPKPCDCPKCPPPEMLGGPSIFIFPPKPKDTLYISRTPEVTCLVVDLGPDDSDVQITWFVDNTQVYTAKTSPREEQFNSTYRVVSVLPILHWPWLKGKEFKCKVNSKSLPSPIERTISKAKGQPHEPQVYVLPPAQEELSRNKVSVTCLIKSFHPPDIAVEWEITGQPEPENNYRTTPPQLDSDGTYFVYSKLSVDRSHWQRGNTYTCSVSHEALHSHHTQKSLTQSPGK	35.2 nM	1130 nM
feline IgG1a S434W (antibody, part only; not given: Variable domains, not shown: another chain or arm of the molecule) constant: ASTTAPSVFPLAPSCGTTSGATVALACLVLGYFPEPVTVSWNSGALTSGVHTFPAVLQASGLYSLSSMVTVPSSRWLSDTFTCNVAHPPSNTKVDKTVRKTDHPPGPKPCDCPKCPPPEMLGGPSIFIFPPKPKDTLSISRTPEVTCLVVDLGPDDSDVQITWFVDNTQVYTAKTSPREEQFNSTYRVVSVLPILHQDWLKGKEFKCKVNSKSLPSPIERTISKAKGQPHEPQVYVLPPAQEELSRNKVSVTCLIKSFHPPDIAVEWEITGQPEPENNYRTTPPQLDSDGTYFVYSKLSVDRSHWQRGNTYTCSVSHEALHWHHTQKSLTQSPGK	0.771 nM	21.6 nM
feline IgG1a S252Y/S434W/Q311W (antibody, part only; not given: Variable domains, not shown: another chain or arm of the molecule) constant: ASTTAPSVFPLAPSCGTTSGATVALACLVLGYFPEPVTVSWNSGALTSGVHTFPAVLQASGLYSLSSMVTVPSSRWLSDTFTCNVAHPPSNTKVDKTVRKTDHPPGPKPCDCPKCPPPEMLGGPSIFIFPPKPKDTLYISRTPEVTCLVVDLGPDDSDVQITWFVDNTQVYTAKTSPREEQFNSTYRVVSVLPILHWDWLKGKEFKCKVNSKSLPSPIERTISKAKGQPHEPQVYVLPPAQEELSRNKVSVTCLIKSFHPPDIAVEWEITGQPEPENNYRTTPPQLDSDGTYFVYSKLSVDRSHWQRGNTYTCSVSHEALHWHHTQKSLTQSPGK	6.59 nM	2190 nM
feline IgG1a S252Y/S428Y/D312P (antibody, part only; not given: variable domains, not shown: another chain or arm of the molecule) constant: ASTTAPSVFPLAPSCGTTSGATVALACLVLGYFPEPVTVSWNSGALTSGVHTFPAVLQASGLYSLSSMVTVPSSRWLSDTFTCNVAHPPSNTKVDKTVRKTDHPPGPKPCDCPKCPPPEMLGGPSIFIFPPKPKDTLYISRTPEVTCLVVDLGPDDSDVQITWFVDNTQVYTAKTSPREEQFNSTYRVVSVLPILHQPWLKGKEFKCKVNSKSLPSPIERTISKAKGQPHEPQVYVLPPAQEELSRNKVSVTCLIKSFHPPDIAVEWEITGQPEPENNYRTTPPQLDSDGTYFVYSKLSVDRSHWQRGNTYTCSVYHEALHSHHTQKSLTQSPGK	15.1 nM	4080 nM
feline IgG1a S252Y/S428Y/L314K (antibody, part only; not given: Variable domains, not shown: another chain or arm of the molecule) constant: ASTTAPSVFPLAPSCGTTSGATVALACLVLGYFPEPVTVSWNSGALTSGVHTFPAVLQASGLYSLSSMVTVPSSRWLSDTFTCNVAHPPSNTKVDKTVRKTDHPPGPKPCDCPKCPPPEMLGGPSIFIFPPKPKDTLYISRTPEVTCLVVDLGPDDSDVQITWFVDNTQVYTAKTSPREEQFNSTYRVVSVLPILHQDWKKGKEFKCKVNSKSLPSPIERTISKAKGQPHEPQVYVLPPAQEELSRNKVSVTCLIKSFHPPDIAVEWEITGQPEPENNYRTTPPQLDSDGTYFVYSKLSVDRSHWQRGNTYTCSVYHEALHSHHTQKSLTQSPGK	7.93 nM	23300 nM
feline IgG1a S252Y/S434W (antibody, part only; not given: Variable domains, not shown: another chain or arm of the molecule) constant: ASTTAPSVFPLAPSCGTTSGATVALACLVLGYFPEPVTVSWNSGALTSGVHTFPAVLQASGLYSLSSMVTVPSSRWLSDTFTCNVAHPPSNTKVDKTVRKTDHPPGPKPCDCPKCPPPEMLGGPSIFIFPPKPKDTLYISRTPEVTCLVVDLGPDDSDVQITWFVDNTQVYTAKTSPREEQFNSTYRVVSVLPILHQDWLKGKEFKCKVNSKSLPSPIERTISKAKGQPHEPQVYVLPPAQEELSRNKVSVTCLIKSFHPPDIAVEWEITGQPEPENNYRTTPPQLDSDGTYFVYSKLSVDRSHWQRGNTYTCSVSHEALHWHHTQKSLTQSPGK	10.2 nM	8380 nM
feline IgG1a S252Y/S434H/Q311W (antibody, part only; not given: variable domains, not shown: another chain or arm of the molecule) constant: ASTTAPSVFPLAPSCGTTSGATVALACLVLGYFPEPVTVSWNSGALTSGVHTFPAVLQASGLYSLSSMVTVPSSRWLSDTFTCNVAHPPSNTKVDKTVRKTDHPPGPKPCDCPKCPPPEMLGGPSIFIFPPKPKDTLYISRTPEVTCLVVDLGPDDSDVQITWFVDNTQVYTAKTSPREEQFNSTYRVVSVLPILHWDWLKGKEFKCKVNSKSLPSPIERTISKAKGQPHEPQVYVLPPAQEELSRNKVSVTCLIKSFHPPDIAVEWEITGQPEPENNYRTTPPQLDSDGTYFVYSKLSVDRSHWQRGNTYTCSVSHEALHHHHTQKSLTQSPGK	8.39 nM	989 nM
feline IgG1a S428Y/D312P/L314K (antibody, part only; not given: Variable domains, not shown: another chain or arm of the molecule) constant: ASTTAPSVFPLAPSCGTTSGATVALACLVLGYFPEPVTVSWNSGALTSGVHTFPAVLQASGLYSLSSMVTVPSSRWLSDTFTCNVAHPPSNTKVDKTVRKTDHPPGPKPCDCPKCPPPEMLGGPSIFIFPPKPKDTLSISRTPEVTCLVVDLGPDDSDVQITWFVDNTQVYTAKTSPREEQFNSTYRVVSVLPILHQPWKKGKEFKCKVNSKSLPSPIERTISKAKGQPHEPQVYVLPPAQEELSRNKVSVTCLIKSFHPPDIAVEWEITGQPEPENNYRTTPPQLDSDGTYFVYSKLSVDRSHWQRGNTYTCSVYHEALHSHHTQKSLTQSPGK	15.2 nM	6860 nM
feline IgG1a S252Y/S434R/Q311W (antibody, part only; not given: Variable domains, not shown: another chain or arm of the molecule) constant: ASTTAPSVFPLAPSCGTTSGATVALACLVLGYFPEPVTVSWNSGALTSGVHTFPAVLQASGLYSLSSMVTVPSSRWLSDTFTCNVAHPPSNTKVDKTVRKTDHPPGPKPCDCPKCPPPEMLGGPSIFIFPPKPKDTLYISRTPEVTCLVVDLGPDDSDVQITWFVDNTQVYTAKTSPREEQFNSTYRVVSVLPILHWDWLKGKEFKCKVNSKSLPSPIERTISKAKGQPHEPQVYVLPPAQEELSRNKVSVTCLIKSFHPPDIAVEWEITGQPEPENNYRTTPPQLDSDGTYFVYSKLSVDRSHWQRGNTYTCSVSHEALHRHHTQKSLTQSPGK	0.143 nM	4.44 nM
feline IgG1a S434Y (antibody, part only; not given: Variable domains, not shown: another chain or arm of the molecule) constant: ASTTAPSVFPLAPSCGTTSGATVALACLVLGYFPEPVTVSWNSGALTSGVHTFPAVLQASGLYSLSSMVTVPSSRWLSDTFTCNVAHPPSNTKVDKTVRKTDHPPGPKPCDCPKCPPPEMLGGPSIFIFPPKPKDTLSISRTPEVTCLVVDLGPDDSDVQITWFVDNTQVYTAKTSPREEQFNSTYRVVSVLPILHQDWLKGKEFKCKVNSKSLPSPIERTISKAKGQPHEPQVYVLPPAQEELSRNKVSVTCLIKSFHPPDIAVEWEITGQPEPENNYRTTPPQLDSDGTYFVYSKLSVDRSHWQRGNTYTCSVSHEALHYHHTQKSLTQSPGK	0.433 nM	14.4 nM
feline IgG1a S252Y/Q311W/L314K (antibody, part only; not given: Variable domains, not shown: another chain or arm of the molecule) constant: ASTTAPSVFPLAPSCGTTSGATVALACLVLGYFPEPVTVSWNSGALTSGVHTFPAVLQASGLYSLSSMVTVPSSRWLSDTFTCNVAHPPSNTKVDKTVRKTDHPPGPKPCDCPKCPPPEMLGGPSIFIFPPKPKDTLYISRTPEVTCLVVDLGPDDSDVQITWFVDNTQVYTAKTSPREEQFNSTYRVVSVLPILHWDWKKGKEFKCKVNSKSLPSPIERTISKAKGQPHEPQVYVLPPAQEELSRNKVSVTCLIKSFHPPDIAVEWEITGQPEPENNYRTTPPQLDSDGTYFVYSKLSVDRSHWQRGNTYTCSVSHEALHSHHTQKSLTQSPGK	10.8 nM	179 nM
